Here are results for 6 molecules from patent publication US20250135018A1.

What all share (test): cell-based or functional assay
One assay concerns the target CD48 (UniProt P09326).
The target of the next assay is NTB-A (UniProt Q96DU3).
The next assay addresses T1, CD70 (UniProt P32970).
T1 sequence (looked up): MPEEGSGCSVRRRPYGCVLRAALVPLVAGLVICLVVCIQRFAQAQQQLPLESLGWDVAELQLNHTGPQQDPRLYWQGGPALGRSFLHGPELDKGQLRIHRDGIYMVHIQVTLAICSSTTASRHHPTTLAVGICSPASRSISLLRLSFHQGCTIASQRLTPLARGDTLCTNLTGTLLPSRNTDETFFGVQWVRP

Sequence of NTB-A (Q96DU3 22-332 limits assumed): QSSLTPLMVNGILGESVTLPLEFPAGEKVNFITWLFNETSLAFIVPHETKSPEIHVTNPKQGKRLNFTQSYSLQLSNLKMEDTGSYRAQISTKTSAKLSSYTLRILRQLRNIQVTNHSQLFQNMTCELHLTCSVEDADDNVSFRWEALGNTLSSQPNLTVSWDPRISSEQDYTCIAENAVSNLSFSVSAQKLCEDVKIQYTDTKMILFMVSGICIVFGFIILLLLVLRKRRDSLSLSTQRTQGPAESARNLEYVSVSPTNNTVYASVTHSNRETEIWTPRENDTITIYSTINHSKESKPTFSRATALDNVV
Sequence of CD48 (P09326 27-220 limits assumed): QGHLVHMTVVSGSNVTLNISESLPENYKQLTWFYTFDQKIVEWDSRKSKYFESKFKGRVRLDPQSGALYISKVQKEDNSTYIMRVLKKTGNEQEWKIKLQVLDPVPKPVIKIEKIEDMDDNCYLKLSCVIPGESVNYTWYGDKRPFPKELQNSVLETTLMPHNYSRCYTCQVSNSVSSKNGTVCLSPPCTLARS

In the assay with CD48, “Ag4-Ex_4-1: hMEM102 anti-CD48 antibody conjugated to MP-PEG4-Val-Lys-Gly-7-MAD-MDCPT, DAR=8” registered an IC50 of cell growth (CellTiter-Glo, 96 h), EJM cells of 53 ng/mL; an IC50 of cell growth (CellTiter-Glo, 96 h), KMM-1 cells of 18 ng/mL; an IC50 of cell growth (CellTiter-Glo, 96 h), MM.1R cells of 4 ng/mL; an IC50 of cell growth (CellTiter-Glo, 96 h), NCI-H929 cells of 6 ng/mL. Also, in the assay with CD48, the IC50 of cell growth (CellTiter-Glo, 96 h), U-266 cells came out at 17 ng/mL; the percent cells remaining at highest concentration tested, EJM cells was 27%; the percent cells remaining at highest concentration tested, KMM-1 cells stood at 16%; the percent cells remaining at highest concentration tested, MM.1R cells was 1%. In the assay with CD48, this molecule registered a percent cells remaining at highest concentration tested, NCI-H929 cells of 2% and a percent cells remaining at highest concentration tested, U-266 cells of 38%.
In the assay with CD48, “Ag4-Ex_8-1a: hMEM102 anti-CD48 antibody conjugated to MC-GGFG-NHCH2-DXd(1), DAR=8” came in with an IC50 of cell growth (CellTiter-Glo, 96 h), EJM cells of 2780 ng/mL; an IC50 of cell growth (CellTiter-Glo, 96 h), KMM-1 cells of 75 ng/mL; an IC50 of cell growth (CellTiter-Glo, 96 h), MM.1R cells of 9 ng/mL; an IC50 of cell growth (CellTiter-Glo, 96 h), NCI-H929 cells of 9 ng/mL. In the assay with CD48, the IC50 of cell growth (CellTiter-Glo, 96 h), U-266 cells is > 10000 ng/mL; the percent cells remaining at highest concentration tested, EJM cells amounted to 0%; the percent cells remaining at highest concentration tested, KMM-1 cells is 34%; the percent cells remaining at highest concentration tested, MM.1R cells amounted to 0%. For the same molecule, the percent cells remaining at highest concentration tested, NCI-H929 cells in the assay with CD48 was found to be 3%.
With “Ag5-Ex_4-1: h20F3 anti-NTB-A antibody conjugated to MP-PEG4-Val-Lys-Gly-7-MAD-MDCPT, DAR=8”, in the assay with NTB-A, the IC50 of cell growth (CellTiter-Glo, 96 h), EJM cells worked out at 150 ng/mL; the IC50 of cell growth (CellTiter-Glo, 96 h), KMM-1 cells is 177 ng/mL; the IC50 of cell growth (CellTiter-Glo, 96 h), MM.1R cells turned out to be 5 ng/mL; the IC50 of cell growth (CellTiter-Glo, 96 h), NCI-H929 cells worked out at 80 ng/mL. For the same molecule, in the assay with NTB-A, the IC50 of cell growth (CellTiter-Glo, 96 h), U-266 cells was determined as 97 ng/mL; the percent cells remaining at highest concentration tested, EJM cells is 31%; the percent cells remaining at highest concentration tested, KMM-1 cells is 16%; the percent cells remaining at highest concentration tested, MM.1R cells worked out at 0%. In the assay with NTB-A, this molecule showed a percent cells remaining at highest concentration tested, NCI-H929 cells of 2% and a percent cells remaining at highest concentration tested, U-266 cells of 28%.
“Ag5-Ex_8-1a: h20F3 anti-NTB-A antibody conjugated to MC-GGFG-NHCH2-DXd(1), DAR=8”: in the assay with NTB-A, the IC50 of cell growth (CellTiter-Glo, 96 h), EJM cells came out at 7190 ng/mL; the IC50 of cell growth (CellTiter-Glo, 96 h), KMM-1 cells was found to be 5290 ng/mL; the IC50 of cell growth (CellTiter-Glo, 96 h), MM.1R cells turned out to be 177 ng/mL; the IC50 of cell growth (CellTiter-Glo, 96 h), NCI-H929 cells is 2930 ng/mL. Moreover, in the assay with NTB-A, the IC50 of cell growth (CellTiter-Glo, 96 h), U-266 cells is > 10000 ng/mL and the percent cells remaining at highest concentration tested, KMM-1 cells turned out to be 45%.

B1: Ag3-Ex_4-1: h1F6 anti-CD70 antibody conjugated to MP-PEG4-Val-Lys-Gly-7-MAD-MDCPT, DAR=8 (antibody, INN chains, looked up, V domains shown)
VH: QVQLVQSGAEVKKPGASVKVSCKASGYTFTNYGMNWVRQAPGQGLKWMGWINTYTGEPTYADAFKGRVTMTRDTSISTAYMELSRLRSDDTAVYYCARDYGDYGMDYWGQGTTVTVSS
VL: DIVMTQSPDSLAVSLGERATINCRASKSVSTSGYSFMHWYQQKPGQPPKLLIYLASNLESGVPDRFSGSGSGTDFTLTISSLQAEDVAVYYCQHSREVPWTFGQGTKVEIK
modifications: MP-PEG4-Val-Lys-Gly-MDCPT conjugate, DAR 8
B1: in the assay with CD70, the IC50 of cell growth (CellTiter-Glo, 96 h), 786-O cells turned out to be 37 ng/mL; the IC50 of cell growth (CellTiter-Glo, 96 h), Caki-1 cells came out at 36 ng/mL; the IC50 of cell growth (CellTiter-Glo, 96 h), Raji cells turned out to be 1130 ng/mL; the IC50 of cell growth (CellTiter-Glo, 96 h), UM-RC-3 cells is 16 ng/mL. In addition, in the assay with CD70, the percent cells remaining at highest concentration tested, 786-O cells is 18%; the percent cells remaining at highest concentration tested, Caki-1 cells worked out at 24%; the percent cells remaining at highest concentration tested, Raji cells was found to be 45%; the percent cells remaining at highest concentration tested, UM-RC-3 cells was found to be 30%.

B2: Ag3-Ex_8-1a: h1F6 anti-CD70 antibody conjugated to MC-GGFG-NHCH2-DXd(1), DAR=8 (antibody, INN chains, looked up, V domains shown)
VH: QVQLVQSGAEVKKPGASVKVSCKASGYTFTNYGMNWVRQAPGQGLKWMGWINTYTGEPTYADAFKGRVTMTRDTSISTAYMELSRLRSDDTAVYYCARDYGDYGMDYWGQGTTVTVSS
VL: DIVMTQSPDSLAVSLGERATINCRASKSVSTSGYSFMHWYQQKPGQPPKLLIYLASNLESGVPDRFSGSGSGTDFTLTISSLQAEDVAVYYCQHSREVPWTFGQGTKVEIK
modifications: MC-GGFG-DXd conjugate, DAR 8
For B2, in the assay with CD70, the IC50 of cell growth (CellTiter-Glo, 96 h), 786-O cells is > 10000 ng/mL; the IC50 of cell growth (CellTiter-Glo, 96 h), Caki-1 cells was > 10000 ng/mL; the IC50 of cell growth (CellTiter-Glo, 96 h), Raji cells was 5560 ng/mL; the IC50 of cell growth (CellTiter-Glo, 96 h), UM-RC-3 cells stood at 65 ng/mL. In the assay with CD70, the percent cells remaining at highest concentration tested, 786-O cells worked out at 54%; the percent cells remaining at highest concentration tested, Caki-1 cells amounted to 68%; the percent cells remaining at highest concentration tested, UM-RC-3 cells came to 40%.
